For assay [1], the target named is T1, SARS-CoV-2 Spike (S) trimer (SARS-CoV-2, UniProt P0DTC2 14-1208).
T1 construct: also called Spike trimer
Kind of assay: ELISA. A general note: An ELISA detects its analyte on a solid surface through an enzyme-linked reagent.

Assay [2] addresses T2, SARS-CoV-2 Receptor Binding Domain (RBD) (SARS-CoV-2, UniProt P0DTC2 319-541).
T2 construct: also called RBD protein
Kind of assay: BLI. For orientation: Biolayer interferometry detects binding as a change in optical thickness at a sensor tip.

The target in a further assay is T3, SARS-CoV-2 S2 protein (SARS-CoV-2, UniProt P0DTC2 686-1213).
T3 construct: domain: S2 protein; also called S2 monomer
The assay is described as follows: BLI.

For another assay, the target named is T4, SARS-CoV-2 S1 protein (SARS-CoV-2, UniProt P0DTC2 16-685).
T4 construct: domain: S1 protein; also called S1 monomer
Kind of assay: BLI.

Assay [3] concerns the target SARS-CoV-2 Envelope (E) protein (SARS-CoV-2, UniProt P0DTC4 1-75). The assay is described as follows: ELISA, Envelope protein.
In assay [4] the target is SARS-CoV-2 Spike (S) trimer (SARS-CoV-2, UniProt P0DTC2 14-1208). Kind of assay: ELISA, S trimer coated, 1:50 dilution.

Three molecules from patent US20240025971A1 (ATRECA, published 2024) can be followed below.

B1: AB-009190 (antibody, V domains shown)
VH: QVQLVESGGGVVQPGRSLRLSCAASGFTFSSYAMHWVRQAPGKGLEWVAVISYDGSNKYYADSVKGRFTISRDNSKNTLYLQMNSLRAEDTAVYYCARLNGDAYYYYGMDVWGQGTTVTVSS
VL: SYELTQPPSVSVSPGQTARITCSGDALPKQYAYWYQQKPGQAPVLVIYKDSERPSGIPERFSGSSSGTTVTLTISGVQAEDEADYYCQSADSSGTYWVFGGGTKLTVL
notes: human IgG1
Take B1: the binding result in assay [1] is on record as “no binding (tested: 2-fold over hIgG1 background)”; in assay [2], “no binding (tested: 300 nM)”; with SARS-CoV-2 S2 protein it was “no binding (tested: 300 nM)”; with SARS-CoV-2 S1 protein, “no binding (tested: 300 nM)”. Moreover, the “Optical Density (OD; 450 nm)” value in assay [3] stood at 0.469 OD450.

B2: AB-009634 (antibody, V domains shown)
VH: QVTLKESGPALVKPTQTLTLTCTFSGFSLSTSGMRVSWIRQPPGKALEWLARIDWDDDKFYSTSLKTRLTISKDTSKNQVVLTMTNMDPVDTATYYCARYYYYGMDVWGQGTTVTVSS
VL: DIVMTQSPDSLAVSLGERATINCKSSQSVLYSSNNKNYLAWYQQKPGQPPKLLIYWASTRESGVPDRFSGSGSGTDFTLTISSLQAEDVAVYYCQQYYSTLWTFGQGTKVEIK
For B2, the “Optical Density (OD; 450 nm)” value in assay [4] was determined as 2.46 OD450.

B3: AB-009213 (antibody, V domains shown)
VH: EVQLVESGGGLVKPGGSLRLSCAASGFTFSSYSMNWVRQAPGKGLEWVSSISSSSSYIYYADSVKGRFTISRDNAKNSLYLQMNSLRAEDTAVYYCARDKLREDGDYDDAFDIWGQGTMVTVSS
VL: not shown
notes: human IgG1
On to B3, for which the binding result is “no binding (tested: 2-fold over hIgG1 background)” in assay [1], “no binding (tested: 300 nM)” in assay [2], “no binding (tested: 300 nM)” with SARS-CoV-2 S2 protein and “no binding (tested: 300 nM)” with SARS-CoV-2 S1 protein.
